From the DeepSol protein solubility set

Test: soluble on expression in E. coli; label from the status in PepcDB or PDB records
For “IIGGREVIPHSRPYMASLQRNGSHLCGGVLVHPKWVLTAAHCLAQRMAQLRLVLGLHTLDSPGLTFHIKAAIQHPRYKPVPALENDLALLQLDGKVKPSRTIRPLALPSKRQVVAAGTRCSMAGWGLTHQGGRLSRVLRELDLQVLDTRMCNNSRFWNGSLSPSMVCLAADSKDQAPCKGDSGGPLVCGKGRVLAGVLSFSSRVCTDIFKPPVATAVAPYVSWIRKVTGRSALEHHHHHH”, the “soluble on expression in E. coli” value was “soluble”. In the case of “MSLTDSFTVRSIEGVCFRYPLATPVVTSFGKMLNRPAVFVRVVDEDGVEGWGEAWSNFPAPGAEHRARLINEVLAPGLVGRKLENPAQAFEVLSKGTEVLALQCGEPGPFAQAISGIDLALWDLFARRRNLPLWRLLGGQSSKIKVYASGINPGGAAQTAEAALKRGHRALKLKVGFGAETDIANLSALLTIVGAGMLAADANQGWSVDQALEMLPRLSEFNLRWLEEPIRADRPREEWRKLRANAKMPIAAGENISSVEDFEAALGDDVLGVIQPDIAKWGGLTVCVELARQILRVGKTFCPHYLGGGIGLLASAHLLAAVGRDGWLEVDANDNPLRDLFCGPVADVREGTIELNQNPGLGIVPDLSAIERYRSIEGHHHHHH”, the “soluble on expression in E. coli” value is reported as “not soluble”. In the case of “MGSDKIHHHHHHMWELDVSPTRFKAHFSLDPGVACLNHGMLGACPISVQQRQSTLRAQLERQPAAFVLRALPALLDTARNCLAEVIGADPQDLLLLPNVTTAMSAVLRSRIFAPGDQILTTDHAYLSCRNLLEFIARSTGAEVMVAPVKVPVQHPDAIVDAVLERVTARTRLAVLDHVTSPTAIVFPIARLVERLAALGIDTLVDGAHAPGMLPLDVIAIGAAYYAGDCHKWLCTPRGAGFLHVRRDRQDGLHPPVISRGYGDATPGRPRLHLEFDWLGTADPTALLCIPAAIDFLATLLPGGLPAVFARNHALVTQAAARLAQALPLARLAPDAMVGSMVAFQLPDAASDAPDDAAASLQRWLYDAHRIDVAVTPWPHRTNRTLRISAQVYNAAEDFMQLDAPLAQCLAPDDRQSNNQCRTTEVMR”, the “soluble on expression in E. coli” value is reported as “not soluble”. For “YDQSSVLIVGDVMLDRYWGGPTSRISPEAPVPVVKVEKIEERPGGAANVAMNIAALGGDAHLVGLVGEDEPAQALTTTLESLKVHCDFVALPEFPTITKLRVMSRGQQLIRLDFEDSFHDVAAEPIISRMQQALSSVKAVVLSDYAKGALEHVQLMIQEARKVNVPVFIDPKGADFERYRGATLLTPNMLEFETVVGKVKDEDDLVAKGQQIIEEFDFEALLVTRSEHGMTLLRRNMEPLHLPTQAREVFDVTGAGDTVISVLAASVSTGKPLDEACALANAAAGVVVGKLGTSTLSTIELAEAIHG”, the “soluble on expression in E. coli” value was “not soluble”. In the case of “MGSDKIHHHHHHMPRITQEISYNCDYGDNTFNLAIDIGGTLAKVVFSPIHSNRLMFYTIETEKIDKFMELLHSIIKEHNNGCYRMTHIIATGGGAFKFYDLLYENFPQIKGISRFEEMEGLIHGLDFFIHEIPDEVFTYNDQDGERIIPTSSGTMDSKAIYPYLLVNIGSGVSILKVTEPNNFSRVGGSSLGGGTLWGLLSLITGAQTYDQMLDWAQEGDNSSVDMLVGDIYGTDYNKIGLKSSAIASSFGKVFQNRMTSNKSLENNENKLYSSHESIEKNNGQMFKNPDICKSLLFAISNNIGQIAYLQAKINNIQNIYFGGSYTRGHLTTMNTLSYAINFWSQGSKQAFFLKHEGYLGAMGAFLSASRHSSTKKTST”, the “soluble on expression in E. coli” value is reported as “not soluble”. In the case of “MVEKFDTIYDYYVDKGYEPSKKRDIIAVFRVTPAEGYTIEQAAGAVAAESSTGTWTTLYPWYEQERWADLSAKAYDFHDMGDGSWIVRIAYPFHAFEEANLPGLLASIAGNIFGMKRVKGLRLEDLYFPEKLIREFDGPAFGIEGVRKMLEIKDRPIYGVVPKPKVGYSPEEFEKLAYDLLSNGADYMKDDENLTSPWYNRFEERAEIMAKIIDKVENETGEKKTWFANITADLLEMEQRLEVLADLGLKHAMVDVVITGWGALRYIRDLAADYGLAIHGHRAMHAAFTRNPYHGISMFVLAKLYRLIGIDQLHVGTAGAGKLEGGKWDVIQNARILRESHYKPDENDVFHLEQKFYSIKAAFPTSSGGLHPGNIQPVIEALGTDIVLQLGGGTLGHPDGPAAGARAVRQAIDAIMQGIPLDEYAKTHKELARALEKWGHVTPV”, the “soluble on expression in E. coli” value is reported as “soluble”. For “MKKPTSAPRSKAFGKQRRKTREELNQEARDRKRLKKHRGHAPGSRAAGGNSASGGGNQNQQKDPRIGSKTPVPLGVTEKVTQQHKPKSEKPMLSPQAELDLLETDERLDALLERLEAGETLSAEDQAWVDAKLDRIDELMQKLGLSYDDDEEDDEEDEKQEDMMRLLRGGN”, the “soluble on expression in E. coli” value was “not soluble”.
